Where “and” joins values, the source holds several entries; their conditions need not be identical. Equal values may be shown once.

B1: 3244_H04 (antibody, V domains shown)
VH: EVQLVESGGGLVQPGGSLRLSCTASGLSVSSTYMNWVRQAPGKGLEWVSVFYSETRTYYADSVKGRFTVSRHNSNNTLYLQMNSLRAEDTAVYYCARVQRLSYGMDVWGQGTTVTVSS
VL: DIQMTQSPSSLSASVGDRVTITCRASQSISTYLNWYQKRPGKAPKLLVYGASSLQSGVPSRFSGSGSGTDFTLTIASLQPEDSAVYYCQQTYSIPLFGQGTRLEIK
B2: 3245_O19 (antibody, V domains shown)
VH: EVQLVESGGGLVQPGGSLRLSCTASGLSVSSTYMNWVRQAPGKGLEWVSVFYSETRTYYADSVKGRFTVSRHNSNNTLYLQMNSLRVEDTAVYYCARVQRLSYGMDVWGQGTTVTVSS
VL: DIQMTQSPSSLSASVGDRVTITCRASQSISTYLNWYQKRPGKAPKLLVYGASTLQSGVPSRFSGSGSGTDFTLTIASLQPEDSATYYCQQTYSIPLFGQGTRLEIK
B3: 3260_D19 (antibody, V domains shown)
VH: DMQLVESGGGLVPPGGSLRLSCAASGFSVSDNYINWVRQAPGKGLDWVSVFYSADRTSYADSVKGRFTVSSHDSKNTVYLQMNSLRAEDTAVYYCARVQKSYYGMDVWGQGTTVTVSS
VL: GIQMTQSPSSLSASVGDRVTITCRASQSISRYLNWYLQKPGKAPKLLISGASSLQSGVPSRFSGTGSGTEFTLTISSLQPEDFATYYCQQTFSIPLFGQGTKVEIK
B4: 3242_P05 (antibody, V domains shown)
VH: DMQLVESGGGLVPPGGSLRLSCAASGFSVSDNYINWVRQAPGKGLDWVSVFYSADRTSYADSVKGRFTVSSHDSKNTVYLQMNSLRAEDTAVYYCARVQKSYYGMDVWGQGTTVTVSS
VL: GIQMTQSPSSLSASVGDRVTITCRASQSISRYLNWYLQKPGKAPKLLISGASSLQSGVPSRFSGTGSGTEFTLTISSLQPEDFATYYCQQTFSIPLFGQGTKVEIK
B5: 3241_G23 (antibody, V domains shown)
VH: QVQLQQSGPGLVKPSQTLSLTCTVSGGPVSGGGYSWNWIRQRPGQGLEWVGFMFHSGSPRYNPTLKSRITISVDTSKNLVSLKLSSVTAADTAVYFCARVGQMDKYYAMDVWGQGTTVTVSS
VL: DIQMTQSPSSLSSSVGDRVTITCRASQSIGAYVNWYQQKAGKAPQVLIFGASNLQSGVPSRFSGSGSGTDFTLTISSLQPEDFATYFCQQTYSTPITFGQGTRLEIK
B6: 3139_P23 (antibody, V domains shown)
VH: QVQLQESGPRLVKPSESLSLTCTVSGGSISNSFWGWIRQPPGEGLEWIGYVYNSGNTKYNPSLKSRVTISRDTSKSQLYMKLRSVTAADTAVYYCARHDDASHGYSISWGHGTLVTVSS
VL: DIQMTQSPSSLSASVGDRVTITCRASQTISTYLNWYQQKSGKAPKLLIYAASGLQSGVPSRFSGSGSGTDFTLTISSLQPEDFATYFCQQSYNTPLTFGQGTKVEIK
B7: TCN-032 (8I10) (antibody, V domains shown)
VH: QVQLQESGPGLVKPSETLSLTCTVSGSSISNYYWSWIRQSPGKGLEWIGFIYYGGNTKYNPSLKSRVTISQDTSKSQVSLTMSSVTAAESAVYFCARASCSGGYCILDYWGQGTLVTVS
VL: DIQMTQSPSSLSASVGDRVTITCRASQNIYKYLNWYQQRPGKAPKGLISAASGLQSGVPSRFSGSGSGTDFTLTITSLQPEDFATYYCQQSYSPPLTFGGGTRVEIK
B8: 3136_G05 (antibody, V domains shown)
VH: QVQLQESGPGLVKPSETLSLTCSVSGGSISSDFWSWIRQPPGKGLEWIGYVYNRGSTKYSPSLKSRVTISADMSKNQFSLNMSSVTAADTAVYYCAKNGRSSTSWGIDVWGKGTTVTVSS
VL: DIQMTQSPSSLSASVGDRLTITCRASQSISTYLHWYQQKPGKAPKLLIYAASSLQSGVPSRFSGSRSGTDFTLTISSLQPDDFATYYCQQSYSPPLTFGPGTKVDMK
B9: 3253_P10 (antibody, V domains shown)
VH: QVQLQESGPGLLKPSDTLALTCTVSGGSITSDYWSWIRQPPGRGLDWIGFFYNGGSTKYNPSLKSRVTISADTSKNQLSLKLTSVTAADTGVYYCARHDAKFSGSYYVASWGQGTRVTVSS
VL: DIQMTQSPSSLSASVGDRVTISCRASQSISTYLNWYQQQPGKAPKVLISGATDLQSGVPSRFSGSGSGTDFTLTISSLQPEDFATYYCQQSYNTPLIFGQGTKLEIK
B10: 3243_J07 (antibody, V domains shown)
VH: QVQLQESGPGLLKPSDTLALTCTVSGGSITSDYWSWIRQPPGRGLDWIGFFYNGGSTKYNPSLKSRVTISADTSKNQLSLKLTSVTAADTGVYYCARHDVKFSGSYYVASWGQGTRVTVSS
VL: DIQMTQSPSSLSASVGDRVTISCRASQSISTYLNWYQQQPGKAPKVLISGATNLQSGVPSRFSGSGSGTDFTLTISSLQPEDFATYYCQQSYNTPLIFGQGTKLEIK
B11: 3244_I10 (antibody, V domains shown)
VH: QVQLQESGPGLLKPSDTLALTCTVSGGSITSDYWSWIRQPPGRGLDWIGFFYNGGSTKYNPSLKSRVTISADTSKNQLSLKLTSVTAADTGVYYCARHDAKFSGSYYVASWGQGTRVTVSS
VL: DIQMTQSPSSLSASVGDRVTISCRASQSISTYLNWYQQQPGKAPKVLIFGATNLQSGVPSRFSGSGSGTDFTLTISSLQPEDFATYYCQQSYNTPLIFGQGTKLEIK
B12: 3252_C13 (antibody, V domains shown)
VH: QVQLQESGPGLVKPSETLSLTCTVSGASISSDYWSWIRLPPGKGLEWIGYIYNRGSTKYTPSLKSRVTISLDTAENQFSLRLRSVTAADTAIYYCARHVGGHTYGIDYWGQGTLVTVSS
VL: DIQMTQSPSSLSASVGDRVTITCRASQSISNYLNWYQHKPGEAPKLLNYAASSLQSGVPSRFSASGSGTDFTLTISSLQPEDFATYYCQQSYNTPITFGQGTRLEIK
B13: 3420_I23 (antibody, V domains shown)
VH: QVQLQESGPGLVKPSETLSVTCKVSGDSISSYSWSWIRQPPGKGLEWVGYLYYSGSTKYNPSLKSRTTISVDTSTNQLSLKLSFVTAADTAVYFCARTGSESTTGYGMDVWGQGTTVTVSS
VL: DIQMTQSPSSLSASVGDRVTITCRASQSISTYLNWYQQKPGKAPKLLIYAASSLHSGVPSRFSGSGSGTDFALTISSLQPEDFATYYCQQSYSPPITFGQGTRLEIK
B14: 3255_J06 (antibody, V domains shown)
VH: QVQLQESGPGLVKPSETLSLTCTVSGASISSDYWSWIRLPPGKGLEWIGYIYNRGSTKYTPSLKSRVTISLDTAENQFSLRLRSVTAADTAVYYCARHVGGHTYGIDYWGQGTLVTVSS
VL: DIQMTQSPSSLSASVGDRVTITCRASQSISNYLNWYQHKPGEAPKLLNYAASSLQSGVPSRFSASGSGTDFTLSISGLQPEDFATYYCQQSYNTPITFGPGTRLEIK
B15: 3362_B11 (antibody, V domains shown)
VH: QVQLQASGPGLVKPSETLSLTCTVSGDSITSGAYYWTWIRQHPGKGLEWIGYIYYSGNTYYNPSLKSRVTISLDTSKNQFSLKVNSVTAADTAVYYCARAASTSVLGYGMDVWGQGTTVTVSS
VL: DIQMTQSPSSLSASVGDRVTITCRASQSISRYLNWYQQEPGKAPKLLVYAASSLQSGVPSRFSGSGSGTDFTLTISSLQPEDFATYYCQQSYSTPLTFGQGTRLEIK
B16: 3248_P18 (antibody, V domains shown)
VH: QVQLQESGPGLVKPSETLSLTCTVSGGSISAYHWSWIRQPPGKGLEWIGHIFDSGSTYYNPSLKSRVTISLDASKNQLSLRLTSVTASDTAIYYCARPLGSRYYYGMDVWGQGTTVTVSS
VL: DIQMTQSPSSLSASVGDRVTITCRASQSISRYLNWYQQKPGKAPKLLIYGASTLQNGAPSRFSGSGSGTDFTLTISSLQPEDSATYLCQQSYSVPAFGGGTKVEVK
B17: 3259_J21 (antibody, V domains shown)
VH: QVQLQESGPRVVRPSETLSLTCTVSGGSISSYNWIWIRQPPGKGLEWIGHIYDYGRTFYNSSLQSRPTISVDASKNQLSLRLTSVTASDTAVYYCARPLGILHYYAMDLWGQGTTVTVSS
VL: DIQMTQSPLSVSVSVGDRVTIACRASQSIDKFLNWYQQKPGKAPKLLIYGASNLHSGAPSRFSASGSGTDFTLTITNIQTEDFATYLCQQSFSVPAFGGGTKVEIK

The target in one assay is M2e. Kind of assay: peptide ELISA, mAb 5 ug/mL.
TCN-032 (8I10) (antibody) came in with an ELISA A450 of 0.13.

The target in another assay is M2 protein of A/Hong Kong/483/1997, expressed on cells (Influenza A virus A/Hong Kong/483/1997 (H5N1)).
Assay: not given
Take B1: the FACS M2-HK MFI was determined as 963 MFI. In turn, B2 gave an FACS M2-HK MFI of 919 MFI.

B3 gave an FACS M2-HK MFI of 846 MFI. Still for that read-out and setting: the result for B4 reads 596 MFI; that for B5, 1700 MFI. On the same count and under the same terms, under B6 stands 110 MFI. Same read-out and setting: under B7 stands 754 MFI and 1080 MFI; under B8, 109 MFI; under B9, 43 MFI. B10: the FACS M2-HK MFI was 131 MFI. As for B11, the FACS M2-HK MFI came to 434 MFI. As for B12, the FACS M2-HK MFI was 449 MFI.

With B13, the FACS M2-HK MFI is 112 MFI. B14: the FACS M2-HK MFI is 442 MFI. The molecule B15 gave an FACS M2-HK MFI of 218 MFI. Same read-out and setting: under B16 stands 967 MFI; under B17, 1670 MFI.

For the origin of these results see patent US20110070235A1.
